This data set in a line: protein stability index of a GFP-peptide fusion (GPS, HEK-293T) (PSI 1-6); higher = more stable. Conditions: c terminus: a fixed tail appended.

± gives the standard deviation.
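Further: 24-mer peptide tiles fused after GFP, lentivirally expressed, FACS-sorted into six equal bins by GFP/DsRed ratio, decoded by Illumina sequencing, PSI is the read-weighted mean bin number.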

In the case of KHSSTSSRIAKGGVDHTKMSLHGA [BTBD10], the protein stability index (treatment: DMSO) is 3.66 ± 0.19 and the protein stability index (treatment: MLN4924 1 uM, 8 h) amounted to 3.79 ± 0.19.
As for QGHPQTGCECEDGPDGQEMDPPNP [GAGE1], the protein stability index turned out to be 5.39 ± 0.33 (treatment: DMSO) and 5.67 ± 0.14 (treatment: MLN4924 1 uM, 8 h).

The values are drawn from the supplement of paper PMC10567573.
